Measurements reported in US9428586B2, “Heparanase splice variant” (COMPUGEN LTD, priority 2010, dated 2016).
Values belong to the molecule of their own block, whether it stands above or below them.

Tests used:
T5 = T5 protein bands in T5-transfected 293 cells treated with tunicamycin or chloroquine (immunoblot); assay type: cell-based, human; settings: tunicamycin 10, 20 μg/ml
Text: FIG. 2. Cloning and expression of T5. A. RT-PCR analysis. Total RNA was extracted from the indicated cell line and subjected to RT-PCR analysis applying T5 (upper panel), heparanase (second panel) and GAPDH (third panel) specific primers, specified in the ‘Materials and Methods’ section. B. T5 transfection. […] Control cells were transfected with an empty vector (Vo). Cell lysates (left) and cell conditioned medium (right) were blotted with anti-heparanase 1453 antibody. C. Cellular localization. Stably transfected 293 cells were triple stained for Myc-tag (T5; middle, red), the ER marker calnexin (ER, left, green), and merged with cell nuclei labeled with TO-PRO (right, blue). Cells were similarly stained with anti-Myc-tag (T5; middle, red), the Golgi marker wheat germ agglutinin-FITC (Golgi, left, green) and merged with cell nuclei labeled with TO-PRO (right, blue). […] D. Enzymatic activity. 293 cells transfected with heparanase (Hepa), T5 or control empty vector (Vo) were subjected to three freeze-thaw cycles and applied onto culture dishes coated with ^35S-labelled ECM. Release of sulfate-labeled material eluted in fractions 15-30 was evaluated as measure of heparanase activity, as described in ‘Materials and Methods’. […]

heparanase = target: T1, heparanase (Homo sapiens, UniProt Q9Y251); assay: Inhibition of purified active heparanase by peptides (35S-labeled ECM degradation); assay type: biochemical; settings: peptide 50 μg/ml; purified active heparanase 40 ng
T1 construct: the 8 kDa portion and the 50 kDa portion form a heterodimer, which is enzymatically active
T1 sequence (Q9Y251 36-109 limits assumed): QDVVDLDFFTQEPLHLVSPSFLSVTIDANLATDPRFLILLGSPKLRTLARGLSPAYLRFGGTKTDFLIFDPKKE
T1 sequence (Q9Y251 158-543 limits assumed): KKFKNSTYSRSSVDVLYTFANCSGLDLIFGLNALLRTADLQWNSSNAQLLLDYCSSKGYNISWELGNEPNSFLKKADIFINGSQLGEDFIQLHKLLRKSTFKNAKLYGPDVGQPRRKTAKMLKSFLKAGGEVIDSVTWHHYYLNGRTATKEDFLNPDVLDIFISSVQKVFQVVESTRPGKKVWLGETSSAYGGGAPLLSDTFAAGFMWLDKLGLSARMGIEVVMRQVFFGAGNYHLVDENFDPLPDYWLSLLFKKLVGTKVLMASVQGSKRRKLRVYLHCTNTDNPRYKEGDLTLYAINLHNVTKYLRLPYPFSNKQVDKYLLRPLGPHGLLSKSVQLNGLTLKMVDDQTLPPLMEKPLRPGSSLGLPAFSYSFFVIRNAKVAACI
Method: (§1) FIG. 7. […] A. Cell lysates. […] B,C. Peptide analysis. […] C. Enzymatic activity.
(§2) Preparation of cell lysates, protein blotting, and measurement of heparanase enzymatic activity were carried out as described previously (Zetser, A., et al., 2006, Cancer Res 66, 1455-1463; Fux, L., et al., 2009, Cancer Res 69, 1758-1767).

Binding to heparin beads = settings: gel electrophoresis prior to or following incubation with heparin beads
Text: as §1

Src [1] = assay: Src phosphorylation (immunoblot, densitometry) in CAG myeloma cells; assay type: cell-based, human; settings: serum-free
Method: (§3) FIG. 3. T5 augments Src phosphorylation. A. Over expression. CAG myeloma (left) and 293 (right) cells infected with heparanase (Hepa), T5, or control empty vector (Vo) were grown in the absence (−) or presence (+) of heparin (50 μg/ml) under serum-free conditions. Total cell lysates were subjected to immunoblotting applying anti-heparanase 1453 (upper and second panels), anti-phospho-Src (p-Src, third panels), anti-Src (fourth panels) anti-phospho-Erk (p-Erk, fifth panels), and anti-Erk2 (sixth panels) antibodies. Src phosphorylation index was calculated by densitometry analysis of phosphorylated Src levels divided by the total Src values. Data is presented as average fold increase ±SE of Src phosphorylation compared with control, Vo cells, set arbitrary to a value of 1 (lower panels) of five independent experiments. B. Gene silencing. Parental 293 cells were transfected with anti-heparanase, anti-T5, or control siRNAs. Total RNA was extracted and RT-PCR analysis was performed applying T5 (upper panel), heparanase (Hepa, second panel) and GAPDH (third panel) specific primers. Corresponding cell lysates were subjected to immunoblotting applying phospho-Src (p-Src, fourth panel), Src (fifth panel), phospho-Erk (p-Erk, sixth panel) and Erk2 (seventh panel) antibodies. Src phosphorylation index was calculated as above and is shown graphically in the lower panel. Note decreased Src phosphorylation levels upon T5 down regulation.
as §2

293 cells = assay: T5 and heparanase levels in cell conditioned medium with heparin (immunoblot); assay type: cell-based, human; settings: heparin 50 μg/ml, 20 h, serum-free
Text: as §1

Erk = Erk phosphorylation (immunoblot) in CAG myeloma and 293 cells; assay type: cell-based, human
Method: as §3, with “Note decreased Src phosphorylation levels upon T5 down regulation.” left out

[2] = test system: CAG myeloma, FaDu pharynx carcinoma and 293 cells; assay: Colony formation in soft agar; assay type: cell-based, human; settings: over expression in CAG myeloma, FaDu and 293 cells
Method: (§4) FIG. 4. T5 augments cell proliferation. A. BrdU incorporation. Morphology of control (Con), heparanase (Hepa)- and T5-infected CAG myeloma cell cultures is shown in the upper panels. […] Sub-confluent cultures of control (Vo), heparanase (Hepa)- and T5-infected CAG cells were grown in serum-free medium for 20 h followed by incubation with BrdU (1:1000) for 2 h. Cells were then fixed and immunostained with anti BrdU monoclonal antibody. Positively stained, red-brown nuclei were counted vs. blue, hematoxilin counter-stained nuclei. At least 1000 cells were counted for each cell type and the percentage of positively stained cells is noted in each panel. Fold increase in BrdU incorporation is shown graphically on the right panel. Gene silencing. 293 cells were transfected with anti-GFP (si-GFP), anti-heparanase (si-Hepa) or anti-T5 siRNA oligonucleotides and BrdU incorporation was evaluated as above except that cells were kept in serum-containing medium (lower panels). Note 2-fold decrease in BrdU incorporation following heparanase or T5 gene silencing (lower right panel). B. Colony formation in soft agar. […]
Three ml of DMEM containing 0.5% low melt agarose (Bio-Rad, Hercules, Calif.) and 10% fetal calf serum was poured into 60 mm petri dishes. […] Colonies were visualized and counted under a microscope after 2-5 weeks, as described.

CAG myeloma cells [3] = assay: Cell proliferation by BrdU incorporation, CAG myeloma cells; assay type: cell-based, human; settings: infected CAG cells, serum-free 20 h, BrdU 2 h; control Vo 24±3%
Method: as §4
Cell proliferation was analyzed by BrdU incorporation using cell proliferation labeling reagent (1:1000, GE Healthcare), as described in Zetser, A., et al (2003 Cancer Res 63, 7733-7741). At least 1000 cells were counted for each cell type.

Src [4] = assay: Src phosphorylation (immunoblot, densitometry) in 293 cells; assay type: cell-based, human; settings: over expressing 293 cells, serum-free
Method: as §3, with “(-)” for “(−)”, “Data is presented as average fold increase ±SE of Src phosphorylation compared with control, Vo cells, set arbitrary to a value of 1 (lower panels) of five independent experiments.” left out, “regulation. […]” for “regulation.”

CAG myeloma cells [5] = assay: CAG myeloma tumor xenograft development and immunohistochemistry; assay type: in vivo, athymic nude mice
Method: FIG. 5. T5 enhances tumor xenograft development. Control (Vo), heparanase-, and T5-infected CAG myeloma cells were injected subcutaneously (1×10^6/0.1 ml) and tumor volume was calculated (A). At the end of the experiment on day 37, tumors were resected, photographed (A, inset) and weighted (B). C. Immunohistochemical analysis. Paraffin-embedded 5 micron sections were stained with hematoxilin & eosin (left column), anti-CD31 (second left column), and anti-smooth muscle actin (SMA, two right columns) antibodies. Note increased blood vessels density and maturation (recruitment of SMA-positive cells) in xenografts produced by heparanase- and T5-infected cells. Cells from exponential cultures of control-, heparanase-, and T5-infected CAG myeloma cells were detached with trypsin/EDTA, washed with PBS and brought to a concentration of 1×10^7 cells/ml. Cell suspension (1×10 6/0.1 ml) was inoculated subcutaneously at the right flank of 5-weeks old female athymic nude mice (n=7). Xenograft size was determined twice a week by externally measuring tumors in two dimensions using a caliper. At the end of the experiment, mice were sacrificed and xenografts were removed, weighted and fixed in formalin. Paraffin-embedded 5 micron sections were subjected to immunostaining with anti-PECAM-1 (CD31) or anti-smooth muscle actin (1A4, Sigma) antibodies, using the Envision kit, according to the manufacturer's (Dako, Glostrup, Denmark) instructions, as described (Fux, L., et al., 2009, Cancer Res 69, 1758-1767). All animal experiments were approved by the Animal Care Committee of the Technion, Haifa, Israel.

[6] = CAG xenografts, immunohistochemistry

Molecule: tunicamycin
- amount of the ˜17 kDa T5 band (T5): markedly reduced

- interaction of peptide with heparin (Binding to heparin beads): failed to interact with heparin
Molecule: CKKFKNSTYSSKK [CKKK]
- inhibition of heparanase enzymatic activity (heparanase): failed to interact with heparin or to inhibit heparanase enzymatic activity

Molecule: heparin
- effect of heparin on Src phosphorylation enhanced by heparanase or T5 (Src [1]; heparin 50 μg/ml, CAG myeloma and 293 cells): not affected
- T5 levels in the cell culture medium upon addition of heparin (293 cells): not affected
- heparanase levels in the cell culture medium upon addition of heparin (293 cells): markedly increased

B1: heparanase: full length wild type human heparanase, endo-β-D-glucuronidase (protein)
chain: QDVVDLDFFTQEPLHLVSPSFLSVTIDANLATDPRFLILLGSPKLRTLARGLSPAYLRFGGTKTDFLIFDPKKESTFEERSYWQSQVNQDICKYGSIPPDVEEKLRLEWPYQEQLLLREHYQKKFKNSTYSRSSVDVLYTFANCSGLDLIFGLNALLRTADLQWNSSNAQLLLDYCSSKGYNISWELGNEPNSFLKKADIFINGSQLGEDFIQLHKLLRKSTFKNAKLYGPDVGQPRRKTAKMLKSFLKAGGEVIDSVTWHHYYLNGRTATKEDFLNPDVLDIFISSVQKVFQVVESTRPGKKVWLGETSSAYGGGAPLLSDTFAAGFMWLDKLGLSARMGIEVVMRQVFFGAGNYHLVDENFDPLPDYWLSLLFKKLVGTKVLMASVQGSKRRKLRVYLHCTNTDNPRYKEGDLTLYAINLHNVTKYLRLPYPFSNKQVDKYLLRPLGPHGLLSKSVQLNGLTLKMVDDQTLPPLMEKPLRPGSSLGLPAFSYSFFVIRNAKVAACI
- Erk phosphorylation upon over expression (Erk): not affected
- Src phosphorylation increase vs control Vo cells (Src [1]; infected CAG myeloma cells): ~3 fold
- colony number, size and cell density in soft agar [2]: markedly increased
- BrdU incorporation (positively stained cells) (CAG myeloma cells [3]): 49±6%
- Src phosphorylation enhancement vs control Vo cells (Src [4]): ~4 fold
- micro vessel density (CD31) (CAG myeloma cells [5]; [6]): two-fold increase in vessel density
- pericytes associated with blood vessels (smooth muscle actin) (CAG myeloma cells [5]; [6]): significantly increased number of pericytes
- average weight of xenografts (CAG myeloma cells [5]; day 37, subcutaneous infected CAG cells, control 58±11 mg): 648 ± 69 mg
- development of tumor xenografts after day 21 vs control cells (CAG myeloma cells [5]; subcutaneous infected CAG cells): markedly enhanced
